Test results: patent publication US20230070752A1 (KOREA ADVANCED INSTITUTE OF SCIENCE AND TECHNOLOGY, published 2023)
Residue numbers refer to the chain shown, from its start. Numbers in names are those of the source.

Key:
[1] = target: T1, IFNλR1 (UniProt Q8IU57 21-228, limits assumed); assay: BLI (BLItz), biotinylated eIFNλ4 immobilized on streptavidin biosensor, IFNλR1 as analyte (500, 1000, 2000 nM), 1:1 global fit
T1 construct: Soluble protein used at 500, 1000 and 2000 nM in BLI; also called IFNLR1; interferon lambda receptor 1
T1 sequence (looked up): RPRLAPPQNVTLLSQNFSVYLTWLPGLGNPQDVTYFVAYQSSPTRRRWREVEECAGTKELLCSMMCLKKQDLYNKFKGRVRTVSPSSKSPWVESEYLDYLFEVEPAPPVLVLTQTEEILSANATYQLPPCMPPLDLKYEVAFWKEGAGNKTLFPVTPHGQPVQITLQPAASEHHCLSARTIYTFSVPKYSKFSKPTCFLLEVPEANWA
Protocol: (§1) Sensorgrams were obtained from BLItz instrument. Data points are shown in grey and the corresponding fits are shown in red (IFNλR1) and blue (IL10Rβ). KD values were calculated from 1:1 global fitting.
(§2) The binding kinetics of the IFNλ4 variant to IFNλR1 and IL10Rβ were measured using biolayer light interferometry (BLI) in a BLItz system (ForteBio, Pall Life Sciences). The mixture was stirred in a washing buffer (200 mM NaCl, 20 mM Tris-HCl pH 8, 5% glycerol, 0.01% Tween-20) at 2,200 rpm. Analysis was performed at room temperature. 0.25 mg/ml of biotinylated IFNλ4 was loaded on the surface of the streptavidin biosensor (ForteBio) for 1 minute, and then the loaded biosensor was washed with a washing buffer (200 mM NaCl, 20 mM Tris-HCl pH 8, 5% glycerol, 0.01% Tween-20) for 2 minutes to remove unbound protein. The biosensor tip was immersed in drops containing the indicated concentrations of IFNλR1 and IL10Rβ (500, 1000 and 2000 nM). Associations (on rate, kon) were measured at intervals of 2 minutes. Subsequently, the sensor was immersed in the washing buffer for 2 minutes to measure dissociations (off-rate koff). KD measured in nanomoles was calculated as a ratio of […]. The resulting data was analyzed by fitting to a 1:1 ligand model using the entire global fitting function.

[2] = target: T1, IFNλR1; assay: BLI (BLItz), biotinylated eIFNλ4 immobilized on streptavidin biosensor, IFNλR1 as analyte (500, 1000, 2000 nM), 1:1 global fit; column head k dis
Protocol: as §1, §2

[3] = target: T2, IL10Rβ (UniProt Q08334 20-220, limits assumed); assay: BLI (BLItz), biotinylated eIFNλ4 immobilized on streptavidin biosensor, IL10Rβ as analyte (500, 1000, 2000 nM), 1:1 global fit; column head k dis
T2 construct: Soluble protein used at 500, 1000 and 2000 nM in BLI; also called IL10RB; interleukin-10 receptor beta
T2 sequence (looked up): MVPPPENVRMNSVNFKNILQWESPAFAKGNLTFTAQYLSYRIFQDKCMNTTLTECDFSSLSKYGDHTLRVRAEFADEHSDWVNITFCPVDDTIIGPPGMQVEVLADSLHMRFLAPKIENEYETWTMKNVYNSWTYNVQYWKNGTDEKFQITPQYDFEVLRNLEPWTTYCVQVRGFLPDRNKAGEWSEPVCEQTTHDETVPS
Protocol: as §1, §2

[4] = target: T2, IL10Rβ; assay: BLI (BLItz), biotinylated eIFNλ4 immobilized on streptavidin biosensor, IL10Rβ as analyte (500, 1000, 2000 nM), 1:1 global fit
Protocol: as §1, §2

[5] = target: T2, IL10Rβ; assay: BLI (BLItz), biotinylated IFNλ4 on streptavidin sensor, IL10Rβ in solution at 500-2000 nM, 1:1 global fit
Protocol: as §1, §2
(§3) To investigate whether the mutation and the additional glycan on IFNλ4 variants affect their binding to their receptors, IL10Rβ and IFNλR1, in-vitro binding affinity of the IFNλ4 variants to IL10Rβ and IFNλR1 was evaluated using biolayer light interferometry (BLI) and then compared with that of wild-type IFNλ4 (eIFNλ4) purified from E. coli. Similar to eIFNλ4, the three IFNλ4 variants appropriately bound to the receptor, and the binding affinity for IFNλR1 was higher than the binding affinity for IL10Rβ (FIG. 4).

[6] = target: T1, IFNλR1; assay: BLI (BLItz), biotinylated IFNλ4 on streptavidin sensor, IFNλR1 in solution at 500-2000 nM, 1:1 global fit
Protocol: as §1, §2, §3

[7] = target: T2, IL10Rβ; assay: BLI (BLItz), biotinylated IFNλ4 variant immobilized on streptavidin biosensor, IL10Rβ as analyte (500, 1000, 2000 nM), 1:1 global fit
Protocol: as §1, §2

[8] = target: T1, IFNλR1; assay: BLI (BLItz), biotinylated IFNλ4 variant immobilized on streptavidin biosensor, IFNλR1 as analyte (500, 1000, 2000 nM), 1:1 global fit; column head k dis
Protocol: as §1, §2

[9] = target: T2, IL10Rβ; assay: BLI (BLItz), biotinylated IFNλ4 variant immobilized on streptavidin biosensor, IL10Rβ as analyte (500, 1000, 2000 nM), 1:1 global fit; column head k dis
Protocol: as §1, §2

[10] = target: T1, IFNλR1; assay: BLI (BLItz), biotinylated IFNλ4 variant immobilized on streptavidin biosensor, IFNλR1 as analyte (500, 1000, 2000 nM), 1:1 global fit
Protocol: as §1, §2

B1: eIFNλ4 (wild-type IFNλ4 produced in E. coli, R&D Systems 9165-IL) (ligand)
chain: MAPRRCLLSHYRSLEPRTLAAAKALRDRYEEEALSWGQRNCSFRPRRDPPRPSSCARLRHVARGIADAQAVLSGLHRSELLPGAGPILELLAAAGRDVAACLELARPGSSRKVPGAQKRRHKPRRADSPRCRKASVVFNLLRLLTWELRLAAHSGPCL
modifications: not glycosylated (E. coli); biotinylated for BLI
notes: Bought as protein and used as the wild-type control; also called eIFNL4; control wild-type IFNλ4
Work on B1 yielded a kon [1] of 21300 M⁻¹ s⁻¹, a koff [2] of 0.000397 s⁻¹ and a koff [3] of 0.00203 s⁻¹. The kon [4] was 28800 M⁻¹ s⁻¹, the Kd [5] was 71 nM and the Kd [6] was 19 nM.

B2: M1 (L28N) IFNλ4 variant (ligand)
chain: B1 chain with M1A, L7N
modifications: N-glycan at Asn61 (L28N not glycosylated); biotinylated for BLI
notes: Secreted from Expi293F cells as a C-terminal Protein A fusion; Protein A was removed by thrombin at an LVPRGS site; Monomer by SDS-PAGE; also called L28N (M1)
For B2, the kon [7] was 21300 M⁻¹ s⁻¹, the koff [8] was 0.000686 s⁻¹ and the koff [9] was 0.00104 s⁻¹. It also gave a Kd [5] of 49 nM, a kon [10] of 50200 M⁻¹ s⁻¹ and a Kd [6] of 14 nM.

B3: M3 (P73N) IFNλ4 variant (ligand)
chain: B1 chain with M1A, P52N
modifications: N-glycans at Asn61 and at P73N (Asn73); biotinylated for BLI
notes: Secreted from Expi293F cells as a C-terminal Protein A fusion; Protein A was removed by thrombin at an LVPRGS site; Monomer by SDS-PAGE; also called P73N (M3)
In the case of B3, the kon [7] is reported as 29100 M⁻¹ s⁻¹, the koff [8] is reported as 0.000647 s⁻¹ and the koff [9] is reported as 0.00148 s⁻¹. It also gave a Kd [5] of 51 nM, a kon [10] of 29200 M⁻¹ s⁻¹ and a Kd [6] of 22 nM.

B4: M7 (L28N+P73N) IFNλ4 variant (ligand)
chain: B1 chain with M1A, L7N, P52N
modifications: N-glycans at Asn61 and at P73N (Asn73); L28N not glycosylated; biotinylated for BLI
notes: Secreted from Expi293F cells as a C-terminal Protein A fusion; Protein A was removed by thrombin at an LVPRGS site; Monomer by SDS-PAGE; also called double mutant
Work on B4 yielded a kon [7] of 26200 M⁻¹ s⁻¹, a koff [8] of 0.000967 s⁻¹ and a koff [9] of 0.00129 s⁻¹. The Kd [5] was 49 nM, the kon [10] was 58300 M⁻¹ s⁻¹ and the Kd [6] was 17 nM.
